Data published in patent publication US20180002420A1 (TRELLIS BIOSCIENCE, published 2018).

How the values were obtained:
[1] = target: T1, KIR2DL3 Extracellular Domain (UniProt P43628 22-245, limits assumed); assay: adsorption ELISA on coated KIR ECD, serial dilutions; printed as 'Affinity nM'
T1 construct: extracellular domain; ECD either purchased or produced in house; also called KIR2DL3 ECD
Procedure: (§1) The mAbs prepared in Example 1 were tested in adsorption ELISA using different KIR Extracellullar Domains (ECD), either purchased or produced in house. Serial dilutions allowed calculating binding affinities (listed below in Table 1 in nM); ND: not detectable.

[2] = target: T2, KIR3DS1 Extracellular Domain (UniProt Q14943 22-340, limits assumed); assay: as above
T2 construct: extracellular domain; ECD either purchased or produced in house; also called KIR3DS1 ECD
Procedure: as §1

[3] = target: T3, KIR2DL2 Extracellular Domain (UniProt P43627 22-245, limits assumed); assay: as above
T3 construct: extracellular domain; ECD either purchased or produced in house; also called KIR2DL2 ECD
Procedure: as §1

[4] = target: T4, KIR3DL1 Extracellular Domain (UniProt P43629 22-340, limits assumed); assay: as above
T4 construct: extracellular domain; ECD either purchased or produced in house; also called KIR3DL1 ECD
Procedure: as §1

[5] = target: T5, KIR2DS4 Extracellular Domain (UniProt P43632 22-245, limits assumed); assay: as above
T5 construct: extracellular domain; ECD either purchased or produced in house; also called KIR2DS4 ECD
Procedure: as §1

[6] = target: T6, BSA (UniProt P02769 25-607); assay: adsorption ELISA on coated BSA control, serial dilutions; ND: not detectable
T6 construct: Control protein in the adsorption ELISA

[7] = target: T7, KIR2DL1 Extracellular Domain (UniProt P43626 22-245, limits assumed); assay: adsorption ELISA on coated KIR ECD, serial dilutions; ND: not detectable
T7 construct: extracellular domain; ECD either purchased or produced in house; also called KIR2DL1 ECD
Procedure: as §1

[8] = target: T8, KIR3DL3 Extracellular Domain (UniProt Q8N743 26-322, limits assumed); assay: as above
T8 construct: extracellular domain; ECD either purchased or produced in house; also called KIR3DL3 ECD
Procedure: as §1

[9] = target: T9, KIR2DL4 Extracellular Domain (UniProt Q99706 22-242, limits assumed); assay: as above
T9 construct: extracellular domain; ECD either purchased or produced in house; also called KIR2DL4 ECD
Procedure: as §1

[10] = target: T10, KIR3DL2 Extracellular Domain (UniProt P43630 22-340, limits assumed); assay: as above
T10 construct: extracellular domain; ECD either purchased or produced in house; also called KIR3DL2 ECD
Procedure: as §1

[11] = target: T10, KIR3DL2 Extracellular Domain; assay: adsorption ELISA on coated KIR ECD, serial dilutions; printed as 'Affinity nM'
Procedure: as §1

[12] = target: T2, KIR3DS1 Extracellular Domain; assay: adsorption ELISA on coated KIR ECD, serial dilutions; ND: not detectable
Procedure: as §1

[13] = target: T4, KIR3DL1 Extracellular Domain; assay: as above
Procedure: as §1

[14] = target: T5, KIR2DS4 Extracellular Domain; assay: as above
Procedure: as §1

[15] = target: T7, KIR2DL1 Extracellular Domain; assay: adsorption ELISA on coated KIR ECD, serial dilutions; printed as 'Affinity nM'
Procedure: as §1

[16] = target: T9, KIR2DL4 Extracellular Domain; assay: as above
Procedure: as §1

T6 sequence (P02769 25-607 limits assumed): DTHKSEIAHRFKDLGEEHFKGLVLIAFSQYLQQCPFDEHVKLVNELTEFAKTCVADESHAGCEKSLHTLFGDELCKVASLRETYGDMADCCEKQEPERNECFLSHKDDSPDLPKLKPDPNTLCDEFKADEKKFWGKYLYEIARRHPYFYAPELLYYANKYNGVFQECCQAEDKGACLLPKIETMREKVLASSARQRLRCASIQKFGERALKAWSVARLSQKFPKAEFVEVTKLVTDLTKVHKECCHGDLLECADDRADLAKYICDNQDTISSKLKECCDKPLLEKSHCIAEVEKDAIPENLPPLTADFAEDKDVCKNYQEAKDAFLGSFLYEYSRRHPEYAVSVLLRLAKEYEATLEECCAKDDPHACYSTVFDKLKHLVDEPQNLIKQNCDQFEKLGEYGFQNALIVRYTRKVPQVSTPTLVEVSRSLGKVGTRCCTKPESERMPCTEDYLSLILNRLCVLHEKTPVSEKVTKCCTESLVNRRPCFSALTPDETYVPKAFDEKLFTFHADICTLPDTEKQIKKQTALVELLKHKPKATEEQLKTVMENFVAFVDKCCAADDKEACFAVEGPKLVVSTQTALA
T9 sequence (Q99706 22-242 limits assumed): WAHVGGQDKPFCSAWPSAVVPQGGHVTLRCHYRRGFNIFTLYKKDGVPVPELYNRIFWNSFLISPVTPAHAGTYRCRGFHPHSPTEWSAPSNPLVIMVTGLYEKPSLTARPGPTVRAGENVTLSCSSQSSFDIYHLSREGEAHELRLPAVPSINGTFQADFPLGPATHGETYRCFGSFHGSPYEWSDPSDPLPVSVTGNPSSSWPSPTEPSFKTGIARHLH
T4 sequence (P43629 22-340 limits assumed): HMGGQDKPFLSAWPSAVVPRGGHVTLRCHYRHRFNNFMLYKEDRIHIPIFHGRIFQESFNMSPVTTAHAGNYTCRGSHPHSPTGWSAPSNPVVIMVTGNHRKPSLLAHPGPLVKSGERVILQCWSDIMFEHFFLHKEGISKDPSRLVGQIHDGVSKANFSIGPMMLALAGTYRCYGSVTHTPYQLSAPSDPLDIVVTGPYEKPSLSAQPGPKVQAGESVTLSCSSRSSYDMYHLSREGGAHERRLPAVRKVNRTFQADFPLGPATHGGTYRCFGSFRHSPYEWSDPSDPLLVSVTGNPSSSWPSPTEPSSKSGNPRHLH
T5 sequence (P43632 22-245 limits assumed): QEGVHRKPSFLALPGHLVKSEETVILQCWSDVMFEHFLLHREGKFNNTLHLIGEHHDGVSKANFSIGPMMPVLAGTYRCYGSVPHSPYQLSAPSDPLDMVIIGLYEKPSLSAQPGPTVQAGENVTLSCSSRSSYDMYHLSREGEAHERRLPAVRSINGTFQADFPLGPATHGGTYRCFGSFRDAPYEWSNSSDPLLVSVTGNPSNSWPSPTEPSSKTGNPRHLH
T2 sequence (Q14943 22-340 limits assumed): as the sequence (P43629 22-340 limits assumed) above, with I47V, S58G, V92M, K136R, G138W, P163S, L166R, P199L, P315L counted along it
T7 sequence (P43626 22-245 limits assumed): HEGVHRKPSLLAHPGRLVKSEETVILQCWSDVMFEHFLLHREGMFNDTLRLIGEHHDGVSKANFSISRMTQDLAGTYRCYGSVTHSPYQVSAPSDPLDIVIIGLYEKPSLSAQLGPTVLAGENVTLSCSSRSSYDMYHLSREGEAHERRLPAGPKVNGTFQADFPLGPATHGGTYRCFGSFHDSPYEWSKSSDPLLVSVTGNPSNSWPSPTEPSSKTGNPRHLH
T3 sequence (P43627 22-245 limits assumed): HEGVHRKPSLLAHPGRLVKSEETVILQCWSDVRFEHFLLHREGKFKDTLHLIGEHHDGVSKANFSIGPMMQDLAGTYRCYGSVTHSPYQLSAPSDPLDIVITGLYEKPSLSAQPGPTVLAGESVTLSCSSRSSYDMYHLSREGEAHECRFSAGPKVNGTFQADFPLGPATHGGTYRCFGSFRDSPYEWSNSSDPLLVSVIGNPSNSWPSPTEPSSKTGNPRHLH
T10 sequence (P43630 22-340 limits assumed): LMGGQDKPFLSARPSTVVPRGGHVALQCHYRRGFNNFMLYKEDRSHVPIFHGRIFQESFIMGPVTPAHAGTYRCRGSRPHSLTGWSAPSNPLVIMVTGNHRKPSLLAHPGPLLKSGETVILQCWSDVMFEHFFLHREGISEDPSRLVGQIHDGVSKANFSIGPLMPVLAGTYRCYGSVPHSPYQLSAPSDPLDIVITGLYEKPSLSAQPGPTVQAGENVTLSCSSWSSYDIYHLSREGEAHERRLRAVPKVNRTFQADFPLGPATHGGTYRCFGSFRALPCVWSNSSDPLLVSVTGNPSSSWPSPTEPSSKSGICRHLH
T8 sequence (Q8N743 26-322 limits assumed): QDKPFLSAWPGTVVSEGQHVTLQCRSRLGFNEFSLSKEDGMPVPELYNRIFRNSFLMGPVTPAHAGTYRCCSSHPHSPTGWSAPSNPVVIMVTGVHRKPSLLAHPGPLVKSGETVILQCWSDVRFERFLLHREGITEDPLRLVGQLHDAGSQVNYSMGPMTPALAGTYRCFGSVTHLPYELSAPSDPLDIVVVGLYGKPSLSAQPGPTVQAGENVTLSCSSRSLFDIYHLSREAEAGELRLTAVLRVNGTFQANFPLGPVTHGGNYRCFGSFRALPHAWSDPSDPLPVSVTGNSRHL
T1 sequence (P43628 22-245 limits assumed): as the sequence (P43627 22-245 limits assumed) above, with R16P, E35Q, C148R, I200T, K216E counted along it

Binder	Kd [1] [nM]	Kd [2] [nM]	Kd [3] [nM]	Kd [4] [nM]	Kd [5] [nM]	binding result [6]	binding result [7]	binding result [8]	binding result [9]	binding result [10]	Kd [11] [nM]	binding result [12]	binding result [13]	binding result [14]	Kd [15] [nM]	Kd [16] [nM]
TRL8504 (antibody, V domains shown, Human variable regions cloned from donor B cells and fused recombinantly to an independently cloned generic constant region; Kappa light chain) VH: QVQLVESGGGVVRPGRSLRLSCAASGFTFNRFAMHWVRQAPGKGLEWVSVISYDGHNKYYIDSVKGRFTISRDDSKNTLHLQMNSLRPEDTAVYYCARARDDGRGIFDYWGQGILVTVSS VL: not shown	38	54	12	10	55	no binding	no binding	no binding	no binding	no binding						
TRL8608 (antibody, V domains shown, Human variable regions cloned from donor B cells and fused recombinantly to an independently cloned generic constant region; Kappa light chain) VH: QVQLVQSGAEVKKPGASVKISCKASGYTFTSYYMHWLRQAPGQGLEWMGVINPTDGSTSYAQKFHGRVTMTRVTSTSTVYMDLSSLRSDDTAMYYCAKAHIHAAEGEWFDPWGQGTLVTVSS VL: not shown	79	1800	1800	1900		no binding		no binding		no binding					1100	2000

Now those with a lower Kd [1], led by results:

Kd [1] [nM]	Kd [2] [nM]	Kd [3] [nM]	Kd [4] [nM]	Kd [5] [nM]	binding result [6]	binding result [7]	binding result [8]	binding result [9]	binding result [10]	Kd [11] [nM]	binding result [12]	binding result [13]	binding result [14]	Kd [15] [nM]	Kd [16] [nM]	Binder
0.1		40			no binding	no binding	no binding	no binding		67	no binding	no binding	no binding			TRL8507 (antibody, V domains shown, Human variable regions cloned from donor B cells and fused recombinantly to an independently cloned generic constant region; Lambda light chain) VH: QVQLVESGGGVVQPGRSLRLSCAASGFTFSNYGMHWVRQAPGKGLEWVAVISFDGGNKYYADSVKGRFTISRDNSKNTLYLQMNSLRAEDTAVYYCAKSGYFDSSGYFYPYYYYGMDVWGQGTTVTVSS VL: DIELTQAPSVSVSPGQTARITCSGDALPKEYAYWYQQKPGQAPVLVIYKDSERPSGIPERFSGSSSGTTVTLTISGVQAEDEGDYYCQSADSSGTHVVFGGGTKLTVL
0.005		0.018		2.6	no binding		no binding	no binding	no binding		no binding	no binding		0.026		TRL8605 (antibody, V domains shown, Human variable regions cloned from donor B cells and fused recombinantly to an independently cloned generic constant region; Kappa light chain) VH: QVQLVQSGGGVVQPGRSLRLSCAVSGFTFSSYGMHWVRQAPGKGLEWVTIISYDGSNYDYADSVKGRFTISRDNSKNMVYLQMNSLRADDTAVYYCAKDGFDYWGQGTLVTVSS VL: DIVLTQSPDSLAVSLGERATINCKSSQSVLYSSNNRTYLAWFQQKSGQPPKLLIYWASTRQSGVADRFSGSGSGTDFTLTISSLQAEDVAVYYCQQYYTTPFTFGPGTRVDFKR
